Reference: patent US20200024360A1 (Janssen / Centocor, published 2020)

Assays:
[1] = target: T1, human PSMA (prostate specific membrane antigen), full length (human, UniProt Q04609 1-750); assay: cell-based or functional assay
[2] = target: T1, human PSMA (prostate specific membrane …); assay: flow cytometry cell binding assay, bispecific antibody titrated on LNCaP cells (human PSMA)
Method: (§1) PSMA×CD3 bispecific antibodies were tested for binding to PSMA positive cell lines LNCAP, human PSMA-HEK, Chimpanzee-PSMA-HEK and Cynomolgous monkey PSMA-HEK. To assess the binding capabilities of the PSMA bispecific antibodies, the cell-binding assay was utilized (described previously). Briefly, PSMA expressing tumor cells are bound by bispecific antibodies at known concentrations and the bound antibody is detected by an anti-human kappa light chain PE conjugated detection reagent (Invitrogen). The Mean Fluorescents Intensity (MFI) is the measure of bound bispecific antibody. The MFI is converted to a relative EC₅₀. EC₅₀ is a commonly used dose-response curve, where the half maximal effective concentration or the EC₅₀ point is defined as the inflection point of the curve. EC₅₀ s were determined by measuring cell bound bispecific and known concentrations. […] The dose response curves were then diluted down to that of background or no bispecific binding. The inflection point of this curve reflects the EC₅₀ point. The calculated EC₅₀ is determined by taking the ug/ml amount of bispecific antibody at the EC₅₀ point and converting it to a molarity value based on the MW of the bispecific antibody. Bispecific antibodies were normalized for protein concentration and then incubated with the same number of cells expressing either human or cyno PSMA. […]

[3] = target: T1, human PSMA (prostate specific membrane …); assay: flow cytometry, bispecific antibody titrated on LNCaP cells (human PSMA), anti-human kappa light chain PE
Method: PSMA×CD3 bispecific antibodies were tested for binding to PSMA positive cell lines LNCAP, human PSMA-HEK, Chimpanzee-PSMA-HEK and Cynomolgous monkey PSMA-HEK. To assess the binding capabilities of the PSMA bispecific antibodies, the cell-binding assay was utilized (described previously). Briefly, PSMA expressing tumor cells are bound by bispecific antibodies at known concentrations and the bound antibody is detected by an anti-human kappa light chain PE conjugated detection reagent (Invitrogen). The Mean Fluorescents Intensity (MFI) is the measure of bound bispecific antibody. The MFI is converted to a relative EC₅₀. EC₅₀ is a commonly used dose-response curve, where the half maximal effective concentration or the EC₅₀ point is defined as the inflection point of the curve. EC₅₀ s were determined by measuring cell bound bispecific and known concentrations. […] The dose response curves were then diluted down to that of background or no bispecific binding. The inflection point of this curve reflects the EC₅₀ point. The calculated EC₅₀ is determined by taking the ug/ml amount of bispecific antibody at the EC₅₀ point and converting it to a molarity value based on the MW of the bispecific antibody. Bispecific antibodies were normalized for protein concentration and then incubated with the same number of cells expressing either human or cyno PSMA. The MFI at each concentration was collected by flow cytometry and plotted as a function of concentration. Data was transformed via log 10 and then plotted. Nonlinear regression of binding curves was done to determine EC₅₀ s. These relative values were used for ranking PSMA binding to target cells.

[4] = target: T2, Cynomolgous monkey PSMA, full length (Macaca fascicularis, UniProt Q04609 1-750 (human entry)); assay: flow cytometry, bispecific antibody titrated on cyno PSMA (PSMG5) HEK cells, anti-human kappa light chain PE
T2 construct: On transfected HEK293F cells; also called cyno PSMA; EHH56646.1
T2 chain: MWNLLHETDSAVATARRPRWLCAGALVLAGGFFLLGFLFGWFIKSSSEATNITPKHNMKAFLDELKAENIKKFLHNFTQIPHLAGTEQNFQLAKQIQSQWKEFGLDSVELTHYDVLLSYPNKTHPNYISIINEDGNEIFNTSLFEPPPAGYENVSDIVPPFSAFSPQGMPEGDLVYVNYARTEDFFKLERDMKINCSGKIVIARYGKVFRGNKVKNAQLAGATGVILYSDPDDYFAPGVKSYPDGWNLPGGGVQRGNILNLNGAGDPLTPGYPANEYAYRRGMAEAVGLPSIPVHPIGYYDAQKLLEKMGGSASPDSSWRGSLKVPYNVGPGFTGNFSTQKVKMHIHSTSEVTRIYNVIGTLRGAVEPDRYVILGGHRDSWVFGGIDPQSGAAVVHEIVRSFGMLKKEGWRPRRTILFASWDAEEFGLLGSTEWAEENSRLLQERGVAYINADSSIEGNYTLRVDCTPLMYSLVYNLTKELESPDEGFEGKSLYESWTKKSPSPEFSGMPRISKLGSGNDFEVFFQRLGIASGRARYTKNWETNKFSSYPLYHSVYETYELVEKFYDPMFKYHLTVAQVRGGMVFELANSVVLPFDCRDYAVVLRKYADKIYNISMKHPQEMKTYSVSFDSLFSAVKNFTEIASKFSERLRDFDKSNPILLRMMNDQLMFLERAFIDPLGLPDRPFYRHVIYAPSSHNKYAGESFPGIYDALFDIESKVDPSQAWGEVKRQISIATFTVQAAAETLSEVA
Method: as §1

[5] = target: T3, chimpanzee PSMA, full length (Pan troglodytes, UniProt Q04609 1-750 (human entry)); assay: flow cytometry, bispecific antibody titrated on chimp PSMA (PSMG9) HEK cells, anti-human kappa light chain PE
T3 construct: On transfected HEK293F cells; also called chimp PSMA; H2Q3K5_PANTR
T3 chain: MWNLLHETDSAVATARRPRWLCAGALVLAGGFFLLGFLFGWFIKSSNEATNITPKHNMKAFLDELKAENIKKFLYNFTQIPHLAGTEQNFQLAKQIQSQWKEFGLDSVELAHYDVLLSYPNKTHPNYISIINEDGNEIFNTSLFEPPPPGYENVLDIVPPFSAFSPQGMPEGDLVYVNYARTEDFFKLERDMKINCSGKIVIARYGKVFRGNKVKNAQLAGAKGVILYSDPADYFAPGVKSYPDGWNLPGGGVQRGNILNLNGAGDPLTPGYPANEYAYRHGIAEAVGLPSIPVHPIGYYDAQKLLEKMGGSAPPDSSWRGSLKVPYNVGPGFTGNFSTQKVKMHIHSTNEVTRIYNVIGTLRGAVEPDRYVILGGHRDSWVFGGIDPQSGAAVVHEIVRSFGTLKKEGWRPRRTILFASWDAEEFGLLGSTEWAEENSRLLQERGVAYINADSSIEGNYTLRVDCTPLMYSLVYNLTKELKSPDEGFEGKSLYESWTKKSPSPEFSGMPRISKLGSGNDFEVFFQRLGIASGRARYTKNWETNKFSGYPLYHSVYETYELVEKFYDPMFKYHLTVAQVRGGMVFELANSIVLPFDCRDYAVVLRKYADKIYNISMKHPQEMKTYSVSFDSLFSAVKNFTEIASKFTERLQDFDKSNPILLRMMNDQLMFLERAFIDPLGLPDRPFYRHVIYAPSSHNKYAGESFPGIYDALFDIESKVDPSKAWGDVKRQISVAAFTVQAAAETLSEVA
Method: as §1

B1: PS3B27 (bispecific antibody, human IgG4 S228P, kappa, lambda, F234A L235A)
heavy 1: not shown
light 1: not shown
heavy 2: EVQLVESGGGLVQPGGSLRLSCAASGFTFNTYAMNWVRQAPGKGLEWVARIRSKYNNYATYYAASVKGRFTISRDDSKNSLYLQMNSLKTEDTAVYYCARHGNFGNSYVSWFAYWGQGTLVTVSSASTKGPSVFPLAPCSRSTSESTAALGCLVKDYFPEPVTVSWNSGALTSGVHTFPAVLQSSGLYSLSSVVTVPSSSLGTKTYTCNVDHKPSNTKVDKRVESKYGPPCPPCPAPEAAGGPSVFLFPPKPKDTLMISRTPEVTCVVVDVSQEDPEVQFNWYVDGVEVHNAKTKPREEQFNSTYRVVSVLTVLHQDWLNGKEYKCKVSNKGLPSSIEKTISKAKGQPREPQVYTLPPSQEEMTKNQVSLTCLVKGFYPSDIAVEWESNGQPENNYKTTPPVLDSDGSFLLYSKLTVDKSRWQEGNVFSCSVMHEALHNHYTQKSLSLSLGK
light 2: QTVVTQEPSLTVSPGGTVTLTCRSSTGAVTTSNYANWVQQKPGQAPRGLIGGTNKRAPGTPARFSGSLLGGKAALTLSGVQPEDEAEYYCALWYSNLWVFGGGTKLTVLGQPKAAPSVTLFPPSSEELQANKATLVCLISDFYPGAVTVAWKADSSPVKAGVETTTPSKQSNNKYAASSYLSLTPEQWKSHRSYSCQVTHEGSTVEKTVAPTECS
notes: IgG4 PAA; PSMA arm chains first, then CD3 arm (F405L, R409K); also called PSMB127 x CD3B219; PS2B27
EC50, T-cell dependent cytotoxicity (caspase 3/7), C-42B, donor M2550 [1]: 0.11 nM | EC50, T-cell dependent cytotoxicity (caspase 3/7), C-42B, donor M5524 [1]: 0.06 nM | EC50, T-cell dependent cytotoxicity (caspase 3/7), C-42B, donor M5772 [1]: 0.03 nM | EC50, T-cell dependent cytotoxicity (caspase 3/7), C-42B, donor M7259 [1]: 0.06 nM | EC50, T-cell dependent cytotoxicity (caspase 3/7), C-42B, donor M7444 [1]: 0.05 nM | EC50, T-cell dependent cytotoxicity (caspase 3/7), LNCaP FGc, donor M2550 [1]: 0.27 nM | EC50, T-cell dependent cytotoxicity (caspase 3/7), LNCaP FGc, donor M5524 [1]: 0.09 nM | EC50, T-cell dependent cytotoxicity (caspase 3/7), LNCaP FGc, donor M5772 [1]: 0.04 nM | EC50, T-cell dependent cytotoxicity (caspase 3/7), LNCaP FGc, donor M7259 [1]: 0.05 nM | EC50, T-cell dependent cytotoxicity (caspase 3/7), LNCaP FGc, donor M7444 [1]: 0.09 nM | EC50 (read off the curve) [2]: ~7 nM

B2: PS3B23 (bispecific antibody, human IgG4 S228P, kappa, lambda, F234A L235A)
heavy 1: not shown
light 1: not shown
heavy 2: EVQLVESGGGLVQPGGSLRLSCAASGFTFNTYAMNWVRQAPGKGLEWVARIRSKYNNYATYYAASVKGRFTISRDDSKNSLYLQMNSLKTEDTAVYYCARHGNFGNSYVSWFAYWGQGTLVTVSSASTKGPSVFPLAPCSRSTSESTAALGCLVKDYFPEPVTVSWNSGALTSGVHTFPAVLQSSGLYSLSSVVTVPSSSLGTKTYTCNVDHKPSNTKVDKRVESKYGPPCPPCPAPEAAGGPSVFLFPPKPKDTLMISRTPEVTCVVVDVSQEDPEVQFNWYVDGVEVHNAKTKPREEQFNSTYRVVSVLTVLHQDWLNGKEYKCKVSNKGLPSSIEKTISKAKGQPREPQVYTLPPSQEEMTKNQVSLTCLVKGFYPSDIAVEWESNGQPENNYKTTPPVLDSDGSFLLYSKLTVDKSRWQEGNVFSCSVMHEALHNHYTQKSLSLSLGK
light 2: QTVVTQEPSLTVSPGGTVTLTCRSSTGAVTTSNYANWVQQKPGQAPRGLIGGTNKRAPGTPARFSGSLLGGKAALTLSGVQPEDEAEYYCALWYSNLWVFGGGTKLTVLGQPKAAPSVTLFPPSSEELQANKATLVCLISDFYPGAVTVAWKADSSPVKAGVETTTPSKQSNNKYAASSYLSLTPEQWKSHRSYSCQVTHEGSTVEKTVAPTECS
notes: IgG4 PAA; PSMA arm chains first, then CD3 arm (F405L, R409K); also called PSMB123 x CD3B219
binding result [3]: binds

B3: PS3B25 (bispecific antibody, human IgG4 S228P, kappa, lambda, F234A L235A)
heavy 1: not shown
light 1: not shown
heavy 2: EVQLVESGGGLVQPGGSLRLSCAASGFTFNTYAMNWVRQAPGKGLEWVARIRSKYNNYATYYAASVKGRFTISRDDSKNSLYLQMNSLKTEDTAVYYCARHGNFGNSYVSWFAYWGQGTLVTVSSASTKGPSVFPLAPCSRSTSESTAALGCLVKDYFPEPVTVSWNSGALTSGVHTFPAVLQSSGLYSLSSVVTVPSSSLGTKTYTCNVDHKPSNTKVDKRVESKYGPPCPPCPAPEAAGGPSVFLFPPKPKDTLMISRTPEVTCVVVDVSQEDPEVQFNWYVDGVEVHNAKTKPREEQFNSTYRVVSVLTVLHQDWLNGKEYKCKVSNKGLPSSIEKTISKAKGQPREPQVYTLPPSQEEMTKNQVSLTCLVKGFYPSDIAVEWESNGQPENNYKTTPPVLDSDGSFLLYSKLTVDKSRWQEGNVFSCSVMHEALHNHYTQKSLSLSLGK
light 2: QTVVTQEPSLTVSPGGTVTLTCRSSTGAVTTSNYANWVQQKPGQAPRGLIGGTNKRAPGTPARFSGSLLGGKAALTLSGVQPEDEAEYYCALWYSNLWVFGGGTKLTVLGQPKAAPSVTLFPPSSEELQANKATLVCLISDFYPGAVTVAWKADSSPVKAGVETTTPSKQSNNKYAASSYLSLTPEQWKSHRSYSCQVTHEGSTVEKTVAPTECS
notes: IgG4 PAA; also called PSMB87 x CD3B219
binding result [4]: binds | binding result [5]: binds
